Our source for the Kd values is PMC7531523.

Assay [1] concerns the target rOX40.24.2 full-length human IgG1 (human). As to the kind of experiment: BLI.
Assay [2] concerns the target epOX40.24.1 full-length human IgG1 (human). Put plainly: BLI.
Assay [3] has as its target epOX40.24.2 full-length human IgG1 (human). Put plainly: BLI.
Assay [4] deals with rOX40.24.1 scFv displayed on yeast (human). As to the kind of experiment: flow cytometry on cells.
Assay [5] deals with rOX40.24.2 scFv displayed on yeast (human). As to the kind of experiment: flow cytometry on cells.
The target of assay [6] is epOX40.24.1 scFv displayed on yeast (human). As to the kind of experiment: flow cytometry on cells.
Assay [7] has as its target epOX40.24.2 scFv displayed on yeast (human). As to the kind of experiment: flow cytometry on cells.

B1: tumor necrosis factor receptor superfamily member 4 (OX40), extracellular, soluble portion (domain or fragment)
chain: LHCVGDTYPSNDRCCHECRPGNGMVSRCSRSQNTVCRPCGPGFYNDVVSSKPCKPCTWCNLRSGSERKQLCTATQDTVCRCRAGTQPLDSYKPGVDCAPCPPGHFSPGDNQACKPWTNCTLAGKHTLQPASNSSDAICEDRDPPATQPQETQGPPARPITVQPTEAWPRTSQGPSTRPVEVPGGRA
modifications: biotin (Sulfo-NHS-LC-biotin) for staining of yeast; not stated for BLI and SPR
On to B1, for which the Kd is 6.9 nM in assay [1]; 14.4 nM in assay [2]; 3.8 nM in assay [3]; 2.2 nM in assay [4]; 2 nM in assay [5]; 3.8 nM in assay [6]. The molecule further came in with a Kd in assay [7] of 7.9 nM.
